The text below walks through data of patent US20220120736A1, “METHODS AND ASSAYS FOR MODULATING GENE TRANSCRIPTION BY MODULATING CONDENSATES” (Whitehead Institute for Biomedical Research, priority 2018, published 2022).

The subject of this test is WNT-responsive reporter gene. Description: Luciferase assay with synthetic WNT-reporter (10 copies of TCF/LEF motif). Format: cell-based. The conditions noted are these: overexpression in HEK293T cells. Here is the method:
(FIG. 56A) Schematic of the ChIP experiment. TdTomato-tagged wild type or aromatic mutant β-catenin were stably integrated in mES cells under a doxycycline-inducible promoter. Doxycycline was added to the media 24 hours prior to crosslinking. ChIP was preformed using antibodies against TdTomato. TRE=Tetracycline responsive element. (FIG. 56B) (Top) ChIP-qPCR of ectopically-expressed wild type or aromatic mutant β-catenin at Myc, Sp5, and Klf4 enhancers. Error bars indicate standard deviation of three replicates. Stars indicate p-values obtained by a t-test <0.05. (Bottom) RT-qPCR of mRNA levels after ectopic expression of wild type or aromatic mutant β-catenin of Myc, Sp5, and Klf4. Error bars indicate standard deviation of three replicates. Stars indicate p-values obtained by a t-test <0.05. (FIG. 56C) Luciferase assay using a synthetic WNT-reporter containing 10 copies of the consensus TCF/LEF motif were wild type or aromatic mutant β-catenin was overexpressed in HEK293T cells. Average of 3 biological replicates is shown. Error bars show the standard deviation. Star indicates p-value obtained by a t-test <0.05.
We independently tested the ability of the β-catenin aromatic mutant to transactivate a WNT-responsive reporter gene in a luciferase assay with wild type and mutant forms of β-catenin (FIG. 56C).

B1: wild type β-catenin: wild type β-catenin overexpressed in HEK293T cells (protein, UniProt P35222 2-781, looked up)
Catenin beta-1: ATQADLMELDMAMEPDRKAAVSHWQQQSYLDSGIHSGATTTAPSLSGKGNPEEEDVDTSQVLYEWEQGFSQSFTQEQVADIDGQYAMTRAQRVRAAMFPETLDEGMQIPSTQFDAAHPTNVQRLAEPSQMLKHAVVNLINYQDDAELATRAIPELTKLLNDEDQVVVNKAAVMVHQLSKKEASRHAIMRSPQMVSAIVRTMQNTNDVETARCTAGTLHNLSHHREGLLAIFKSGGIPALVKMLGSPVDSVLFYAITTLHNLLLHQEGAKMAVRLAGGLQKMVALLNKTNVKFLAITTDCLQILAYGNQESKLIILASGGPQALVNIMRTYTYEKLLWTTSRVLKVLSVCSSNKPAIVEAGGMQALGLHLTDPSQRLVQNCLWTLRNLSDAATKQEGMEGLLGTLVQLLGSDDINVVTCAAGILSNLTCNNYKNKMMVCQVGGIEALVRTVLRAGDREDITEPAICALRHLTSRHQEAEMAQNAVRLHYGLPVVVKLLHPPSHWPLIKATVGLIRNLALCPANHAPLREQGAIPRLVQLLVRAHQDTQRRTSMGGTQQQFVEGVRMEEIVEGCTGALHILARDVHNRIVIRGLNTIPLFVQLLYSPIENIQRVAAGVLCELAQDKEAAEAIEAEGATAPLTELLHSRNEGVATYAAAVLFRMSEDKPQDYKKRLSVELTSSLFRTEPMAWNETADLGLDIGAQGEPLGYRQDDPSYRSFHSGGYGQDALGMDPMMEHEMGGHHPGADYPVDGLPDLGHAQDLMDGLPPGDSNQLAWFDTDL
B1: the “increase in luciferase activity” value is reported as 8 fold.
